As a reminder, the Kd is the concentration at which binding is half-saturated.

Read-outs that look alike come from different tables or passages of the source.

Assay [1] deals with T1, recombinant human Fc gamma RIIIa (CD16a) 158F (human, UniProt P08637 17-208).
Assay [2] concerns the target T2, recombinant human Fc gamma RIIIa (CD16a) 158V (human, UniProt P08637 17-208).
Assay [3] has as its target T3, recombinant human Fc gamma RIIIb (CD16b) (human, UniProt O75015 17-200).
Assay [4] deals with T4, recombinant human Fc gamma RIIa (CD32a) 131R (human, UniProt P12318 36-218).
T4 sequence (looked up): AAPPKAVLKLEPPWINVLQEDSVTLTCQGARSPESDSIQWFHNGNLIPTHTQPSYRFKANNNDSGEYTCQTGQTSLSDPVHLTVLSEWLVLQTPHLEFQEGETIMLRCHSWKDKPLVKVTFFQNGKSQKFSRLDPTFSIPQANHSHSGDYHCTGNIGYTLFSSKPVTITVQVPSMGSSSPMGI

For assay [5], the target named is T5, recombinant human Fc gamma RIIb/c (CD32b/c) (human, UniProt P31994 46-217).
T5 sequence (looked up): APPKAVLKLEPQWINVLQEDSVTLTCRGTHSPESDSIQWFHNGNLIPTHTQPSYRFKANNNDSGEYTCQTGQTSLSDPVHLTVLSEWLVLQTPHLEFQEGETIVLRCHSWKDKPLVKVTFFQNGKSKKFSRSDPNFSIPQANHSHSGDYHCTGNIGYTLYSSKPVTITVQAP

The target of assay [6] is T6, recombinant human Fc gamma RI (CD64) (human, UniProt P12314 16-288).
Assay [7] has as its target T1, recombinant human Fc gamma RIIIa …. The source holds these as a separate data set.
The target of assay [8] is T2, recombinant human Fc gamma RIIIa …. The source holds these as a separate data set.
Assay [9] addresses T3, recombinant human Fc gamma RIIIb (CD16b). This is another data set of the same source.
Assay [10] addresses T7, recombinant human Fc gamma RIIa (CD32a) 131H (human, UniProt P12318 36-218).
T7 sequence (looked up): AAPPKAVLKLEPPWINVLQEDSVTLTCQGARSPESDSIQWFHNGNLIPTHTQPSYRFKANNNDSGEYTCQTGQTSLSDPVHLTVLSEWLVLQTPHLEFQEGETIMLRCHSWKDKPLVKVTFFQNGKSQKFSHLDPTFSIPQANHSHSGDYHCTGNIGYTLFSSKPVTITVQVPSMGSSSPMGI

For assay [11], the target named is T4, recombinant human Fc gamma RIIa (CD32a) …. This is another data set of the same source.
In assay [12] the target is T5, recombinant human Fc gamma RIIb/c …. The source holds these as a separate data set.
The target in a further assay is T8, CD20 Lipoparticles (Homo sapiens (Human), UniProt P11836 1-297).
T8 sequence: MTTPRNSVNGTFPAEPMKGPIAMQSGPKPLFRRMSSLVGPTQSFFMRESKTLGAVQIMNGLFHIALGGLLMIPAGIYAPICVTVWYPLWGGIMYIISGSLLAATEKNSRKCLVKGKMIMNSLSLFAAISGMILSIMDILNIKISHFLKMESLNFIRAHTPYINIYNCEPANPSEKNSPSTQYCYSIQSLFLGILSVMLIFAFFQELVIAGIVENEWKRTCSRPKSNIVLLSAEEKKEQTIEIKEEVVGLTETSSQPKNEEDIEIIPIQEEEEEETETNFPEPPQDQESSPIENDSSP

Assay [13] has as its target T6, recombinant human Fc gamma RI (CD64). The source holds these as a separate data set.

T2 sequence (P08637 17-208 F176V limits assumed): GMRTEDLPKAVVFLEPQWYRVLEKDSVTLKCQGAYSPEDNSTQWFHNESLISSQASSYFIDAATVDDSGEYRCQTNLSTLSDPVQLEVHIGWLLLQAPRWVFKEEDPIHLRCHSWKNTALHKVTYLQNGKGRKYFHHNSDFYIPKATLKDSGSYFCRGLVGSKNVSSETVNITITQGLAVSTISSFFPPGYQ
T1 sequence (P08637 17-208 limits assumed): as the sequence (P08637 17-208 F176V limits assumed) above, with V160F counted along it
T3 sequence (O75015 17-200 limits assumed): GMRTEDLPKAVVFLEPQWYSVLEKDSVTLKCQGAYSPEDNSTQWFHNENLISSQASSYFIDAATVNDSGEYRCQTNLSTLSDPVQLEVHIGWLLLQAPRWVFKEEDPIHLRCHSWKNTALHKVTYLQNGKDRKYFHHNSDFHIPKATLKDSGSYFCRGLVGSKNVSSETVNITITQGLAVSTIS
T6 sequence (P12314 16-288 limits assumed): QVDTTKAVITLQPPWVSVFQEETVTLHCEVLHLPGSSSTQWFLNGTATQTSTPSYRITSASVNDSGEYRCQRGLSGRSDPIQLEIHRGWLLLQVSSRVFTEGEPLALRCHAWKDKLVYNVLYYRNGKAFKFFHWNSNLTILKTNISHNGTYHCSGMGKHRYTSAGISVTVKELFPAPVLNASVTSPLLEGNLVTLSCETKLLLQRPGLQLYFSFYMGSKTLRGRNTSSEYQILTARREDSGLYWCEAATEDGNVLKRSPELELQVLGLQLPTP

B1: Rituximab-S239D/I332E (antibody, human IgG1, kappa)
heavy: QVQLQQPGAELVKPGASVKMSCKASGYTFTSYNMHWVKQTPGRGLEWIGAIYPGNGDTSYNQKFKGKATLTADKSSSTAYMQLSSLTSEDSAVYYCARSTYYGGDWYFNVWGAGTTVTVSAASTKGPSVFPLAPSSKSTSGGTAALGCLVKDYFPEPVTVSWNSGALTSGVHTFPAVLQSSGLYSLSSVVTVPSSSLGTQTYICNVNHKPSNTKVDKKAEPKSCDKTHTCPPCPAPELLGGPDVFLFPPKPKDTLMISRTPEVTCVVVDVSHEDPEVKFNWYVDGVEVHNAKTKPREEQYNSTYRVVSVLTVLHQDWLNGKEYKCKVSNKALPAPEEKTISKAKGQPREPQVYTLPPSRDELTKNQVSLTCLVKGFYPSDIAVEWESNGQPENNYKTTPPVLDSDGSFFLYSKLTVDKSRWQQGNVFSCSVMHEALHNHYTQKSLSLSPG
light: QIVLSQSPAILSASPGEKVTMTCRASSSVSYIHWFQQKPGSSPKPWIYATSNLASGVPVRFSGSGSGTSYSLTISRVEAEDAATYYCQQWTSNPPTFGGGTKLEIKRTVAAPSVFIFPPSDEQLKSGTASVVCLLNNFYPREAKVQWKVDNALQSGNSQESVTEQDSKDSTYSLSSTLTLSKADYEKHKVYACEVTHQGLSSPVTKSFNRGEC
As for B1, the dissociation constant (Kd) in assay [1] turned out to be 17.6 nM; in assay [2], 4.33 nM; in assay [3], 66.8 nM; in assay [4] it was 76.8 nM; in [5], 138 nM; in assay [6] it was 0.0266 nM.

B2: Rc66SIDE (antibody, human IgG1, kappa)
light: QIVLSQSPAILSASPGEKVTMTCRASSSVSYIHWFQQKPGSSPKPWIYATSNLASGVPVRFSGSGSGTSYSLTISRVEAEDAATYYCQQWTSNPPTFGGGTKLEIKRTVAAPSVFIFPPSDEQLKSGTASVVCLLNNFYPREAKVQWKVDNALQSGNSQESVTEQDSKDSTYSLSSTLTLSKADYEKHKVYACEVTHQGLSSPVTKSFNRGEC
heavy: QVQLQQPGAELVKPGASVKMSCKASGYTFTSYNMHWVKQTPGRGLEWIGAIYPGNGDTSYNQKFKGKATLTADKSSSTAYMQLSSLTSEDSAVYYCARSTYYGGDWYFNVWGAGTTVTVSAASTKGPSVFPLAPSSKSTSGGTAALGCLVKDYFPEPVTVSWNSGALTSGVHTFPAVLQSSGLYSLSSVVTVPSSSLGTQTYICNVNHKPSNTKVDKKAEPKSCDKTHTCPPCPAPELLGGPDVFLFPPKPKDTLMISRTPEVTCVVVDVSHEDPEVKFNWYVDGVEVHNAKTKPREEQYNSTYRVVSVLTVLHQDWLNGKEYKCKVSNKALPAPEEKTISKAKGQPREPQVYVLPPSRDELTKNQVSLLCLVKGFYPSDIAVEWESNGQPENNYLTWPPVLDSDGSFFLYSKLTVDKSRWQQGNVFSCSVMHEALHNHYTQKSLSLSPGK
chain: CPPCPAPELLGGPDVFLFPPKPKDTLMISRTPEVTCVVVDVSHEDPEVKFNWYVDGVEVHNAKTKPREEQYNSTYRVVSVLTVLHQDWLNGKEYKCKVSNKALPAPEEKTISKAKGQPREPQVYVYPPSRDELTKNQVSLTCLVKGFYPSDIAVEWESNGQPENNYKTTPPVLDSDGSFALVSKLTVDKSRWQQGNVFSCSVMHEALHNHYTQKSLSLSPGK
B2: the dissociation constant (Kd) in [7] is 76.8 nM; in assay [8], 46.2 nM; in assay [9], 163 nM; in assay [10] it was 255 nM; in [11] it was 202 nM; in [12] it was 253 nM. In the assay with CD20 Lipoparticles, this molecule had a Kd of 21.4 nM.

B3: Rc66SIDE-P4-Rc66SIDE (antibody, human IgG1, kappa)
light: QIVLSQSPAILSASPGEKVTMTCRASSSVSYIHWFQQKPGSSPKPWIYATSNLASGVPVRFSGSGSGTSYSLTISRVEAEDAATYYCQQWTSNPPTFGGGTKLEIKRTVAAPSVFIFPPSDEQLKSGTASVVCLLNNFYPREAKVQWKVDNALQSGNSQESVTEQDSKDSTYSLSSTLTLSKADYEKHKVYACEVTHQGLSSPVTKSFNRGEC
heavy: QVQLQQPGAELVKPGASVKMSCKASGYTFTSYNMHWVKQTPGRGLEWIGAIYPGNGDTSYNQKFKGKATLTADKSSSTAYMQLSSLTSEDSAVYYCARSTYYGGDWYFNVWGAGTTVTVSAASTKGPSVFPLAPSSKSTSGGTAALGCLVKDYFPEPVTVSWNSGALTSGVHTFPAVLQSSGLYSLSSVVTVPSSSLGTQTYICNVNHKPSNTKVDKKAEPKSCDKTHTCPPCPAPELLGGPDVFLFPPKPKDTLMISRTPEVTCVVVDVSHEDPEVKFNWYVDGVEVHNAKTKPREEQYNSTYRVVSVLTVLHQDWLNGKEYKCKVSNKALPAPEEKTISKAKGQPREPQVYVLPPSRDELTKNQVSLLCLVKGFYPSDIAVEWESNGQPENNYLTWPPVLDSDGSFFLYSKLTVDKSRWQQGNVFSCSVMHEALHNHYTQKSLSLSPGK
chain: CPPCPAPELLGGPDVFLFPPKPKDTLMISRTPEVTCVVVDVSHEDPEVKFNWYVDGVEVHNAKTKPREEQYNSTYRVVSVLTVLHQDWLNGKEYKCKVSNKALPAPEEKTISKAKGQPREPQVYVYPPSRDELTKNQVSLTCLVKGFYPSDIAVEWESNGQPENNYKTTPPVLDSDGSFALVSKLTVDKSRWQQGNVFSCSVMHEALHNHYTQKSLSLSPGK
With B3, the Kd in [7] was 3.87 nM; in assay [8] it was 1.14 nM; in assay [9], 1.05 nM; in assay [10], 2.54 nM; in assay [11], 4.93 nM; in assay [12], 3.17 nM. For the same molecule, the Kd (in assay [13]; in the assay with CD20 Lipoparticles) was below 0.001 nM each time.

B4: HB2174 (bispecific antibody, human IgG1, kappa)
heavy 1: QVQLVQSGGGVVQPGRSLRLSCAASGVSLPDYGVSWVRKAPGKGLEWVAVIWGSETTYYNSALKSRFTISRDNSKNTLYLQMSSLRAEDTAVYYCAKHYYYGGSFAMDYWGQGTLVTVSSASTKGPSVFPLAPSSKSTSGGTAALGCLVKDYFPEPVTVSWNSGALTSGVHTFPAVLQSSGLYSLESVVTVPSSSLGTQTYICNVNHKPSNTKVDKKVEPKSCTDWSPYADQSIKVRISLKSALGDKAYEWNDNEMYLFRSSVAYAMRQYFLKVKNQMILFGEEDVRVANLKPRISFNFFVTAPKNVSDIIPRTEVEKAIRMSRSRINDAFRLNDNSLEFLGIQPTLGPPNQPPVSTSTSPTRSMAPGAVHLPQPVSTRDKTHTCPPCPAPELLGGPSVFLFPPKPKDTLMISRTPEVTCVVVDVSHEDPEVKFNWYVDGVEVHNAKTKPREEQYNSTYRVVSVLTVLHQDWLNGKEYKCKVSNKALPAPIEKTISKAKGQPREPQVCTLPPSRDELTKNQVSLSCAVKGFYPSDIAVEWESNGQPENNYKTTPPVLDSDGSFFLVSKLTVDKSRWQQGNVFSCSVMHEALHNRFTQKSLSLSPG
heavy 2: not shown
light 1: DIQMTQSPSSLSASVGDRVTITCRASQDISKYLNWYQEKPGKAIKLLIYHTSRLHSGVPSRFSGSGSGTDFTLTISSLQPEDFATYYCQQGATLPYTFGPGTKLEIKRTVAAPSVFIFPPSDEQLKSGTASVKCLLNNFYPREAKVQWKVDNALQSGNSQESVTEQDSKDSTYSLSSTLTLSKADYEKHKVYACEVTHQGLSSPVTKSFNRGEC
light 2: QVQLQQPGAELVKPGASVKMSCKASGYTFTSYNMHWVKETPGRGLEWIGAIYPGNGDTSYNQKFKGKATLTADKSSSTAYMQLSSLTSEDSAVYYCARSTYYGGDWYFNVWGAGTLVTVSSASVAAPSVFIFPPSDEQLKSGTASVECLLNNFYPREAKVQWKVDNALQSGNSQESVTEQDSKDSTYSLSSTLTLSKADYEKHKVYACEVTHQGLSSPVTKSFNRGEC
In the case of B4, the Kd in assay [1] worked out at 2310 nM; in [2], 497 nM; in [3] it was 8910 nM; in assay [4] it was 901 nM; in assay [5], 4480 nM; in assay [6], 0.118 nM.
